Results published in patent publication US20210363224A1 (CONSEJO SUPERIOR DE INVESTIGACIONES CIENT FICAS, published 2021).

Target: T1, Recombinant human IL13 (PeproTech) (human, UniProt P35225 35-146, limits assumed)
T1 construct: Bought reagent; also called interleukin 13
Assay: SPR, BIAcore 3000, IL-13 amine-coupled to CM5 sensor chip (7700 RU), peptide as analyte
Experimental: Binding of D1 peptide to IL-13 was monitored by surface plasmon resonance on a BIAcore 3000 instrument (BIAcore Inc, Switzerland). IL-13 was covalently amino coupled to a CM-5 sensor chip. An immobilization level of 7700 RU was obtained. A nonderivatized flow cell was used as a control. The interaction between D1 peptide and the immobilized IL13 was determined by changes in the RU at different D1 concentrations.
A direct quantitative analytical method as Biacore was used to determine the affinity of the D1 peptide binding to IL-13 (FIG. 3C). Some limitations in the quantitative adjustment to the established models of the Biacore instrument caused a difficult interpretation of the results and impede an accurate determination of the affinity.

T1 sequence (P35225 35-146 limits assumed): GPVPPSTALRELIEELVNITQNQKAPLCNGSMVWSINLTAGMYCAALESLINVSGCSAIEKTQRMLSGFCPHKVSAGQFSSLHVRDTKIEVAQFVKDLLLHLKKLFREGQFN

B1: IL13Rα2D1 peptide (GSETWKTIITKN) (peptide)
peptide: GSETWKTIITKN
notes: Made by solid phase synthesis; also called peptide IL13Rα2 D1; L-version
- Kd: ~100 µM
